These results are taken from patent US20240254182A1 (PROVINCIAL HEALTH SERVICES AUTHORITY, published 2024).

Assay [1] has as its target T1, design 30 G-CSFR(Ig-CRH)E, tag cleaved (human, UniProt Q99062 26-331).
T1 construct: also called Design 30 G-CSFR(Ig-CRH)E mutant
T1 chain: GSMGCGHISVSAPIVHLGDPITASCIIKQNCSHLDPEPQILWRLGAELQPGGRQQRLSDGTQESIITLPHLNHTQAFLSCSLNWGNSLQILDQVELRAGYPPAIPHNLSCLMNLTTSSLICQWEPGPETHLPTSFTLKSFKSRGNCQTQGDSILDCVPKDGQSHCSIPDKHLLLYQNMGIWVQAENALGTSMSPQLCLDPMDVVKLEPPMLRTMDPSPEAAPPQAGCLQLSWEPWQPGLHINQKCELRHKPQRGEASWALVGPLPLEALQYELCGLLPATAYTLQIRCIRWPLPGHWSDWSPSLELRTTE
In words: SPR, WT G-CSF against design 30 G-CSFR(Ig-CRH)E, single-cycle kinetics.

The target of assay [2] is T2, design 35 G-CSFR(Ig-CRH)E, tag cleaved (human, UniProt Q99062 26-331).
T2 chain: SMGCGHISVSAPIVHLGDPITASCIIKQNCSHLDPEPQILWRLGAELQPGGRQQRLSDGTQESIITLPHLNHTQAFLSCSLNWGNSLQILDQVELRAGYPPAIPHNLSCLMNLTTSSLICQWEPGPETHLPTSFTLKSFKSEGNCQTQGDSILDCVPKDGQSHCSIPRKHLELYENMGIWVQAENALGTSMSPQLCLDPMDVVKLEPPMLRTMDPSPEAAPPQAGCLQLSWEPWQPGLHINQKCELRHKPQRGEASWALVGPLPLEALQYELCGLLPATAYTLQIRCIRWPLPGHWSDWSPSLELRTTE
The experiment in a line: SPR, WT G-CSF against design 35 G-CSFR(Ig-CRH)E, single-cycle kinetics.

Assay [3] has as its target T3, design 34 G-CSFR(Ig-CRH)E, tag cleaved (human, UniProt Q99062 26-331).
T3 construct: also called Design 34 G-CSFR(Ig-CRH)E mutant
T3 chain: T2 chain with R168D, E172L, E175Q
In words: SPR, WT G-CSF against design 34 G-CSFR(Ig-CRH)E; steady state derived affinity constant.

For assay [4], the target named is T3, design 34 G-CSFR(Ig-CRH)E, tag cleaved. In words: SPR, G-CSFRE amine-coupled, G-CSFE injected, single-cycle kinetics. As to the method:
(§1) The SPR binding assays were carried out on a Biacore T200 instrument (GE Healthcare, Mississauga, ON, Canada) with PBS-T (PBS+0.05% (v/v) Tween 20) running buffer at a temperature of 25° C. CM5 Series S sensor chip, Biacore amine coupling kit (NHS, EDC and 1 M ethanolamine), and 10 mM sodium acetate buffers were all purchased from GE Healthcare. PBS running buffer with 0.05% Tween20 (PBS-T) was purchased from Teknova Inc. (Hollister, CA). Designs were assessed in three different immobilization orientations.
(§2) To determine binding affinity of G-CSFE to G-CSFRE the G-CSFRE mutant was captured by standard amine coupling as described by the manufacturer (GE LifeSciences). Briefly, immediately after EDC/NHS activation, a 5 μg/mL solution of G-CSFRE in 10 mM NaOAc, pH 5.0, was injected at a flow rate of 5 μL/min until a receptor density of ˜700-900 RU was reached. The remaining active groups were quenched by a 420 s injection of 1 M ethanolamine hydrochloride-NaOH pH 8.5 at 10 μL/min. Using single-cycle kinetics, six concentrations of a two-fold dilution series of the corresponding G-CSFE mutant starting at 200 nM with a blank buffer control were sequentially injected at 25 μL/min for 300 s with a 1800 s dissociation phase, resulting in a set of sensorgrams with a buffer blank reference. The same sample titration was also performed on a reference cell with no variants captured. The chip was regenerated to prepare for the next injection cycle by one pulse of 10 mM glycine/HCl, pH 2.0, for 30 s at 30 μL/min.
(§3) Double-referenced sensorgrams from duplicate or triplicate repeat injections were analyzed using Biacore™ T200 Evaluation Software v3.0 and fit to the 1:1 Langmuir binding model.

The target of assay [5] is T4, WT G-CSFR(Ig-CRH), purified, tag cleaved (human, UniProt Q99062 26-331).
T4 construct: also called G-CSFRWT; wild type G-CSFR(Ig-CRH)
T4 chain: T1 chain with D169R
The experiment in a line: SPR, WT G-CSFR(Ig-CRH) amine-coupled, G-CSFE injected, single-cycle kinetics. As to the method: as §1
(§4) To assess binding affinity of G-CSFE to G-CSFRWT, recombinant G-CSFRWT purified as described in Example 5 was captured as described above in this Example. Using single-cycle kinetics, six concentrations of a two-fold dilution series of each G-CSFE mutant starting at […] with a blank buffer control were sequentially injected as described above. The same sample titration was also performed on a reference cell with no variants captured. The G-CSFRWT surface was regenerated as described above.

Assay [6] concerns the target T1, design 30 G-CSFR(Ig-CRH)E, tag cleaved. The experiment in a line: SPR, G-CSFRE amine-coupled, G-CSFE injected, single-cycle kinetics. As to the method:
as §1, §2, §3

Assay [7] concerns the target T4, WT G-CSFR(Ig-CRH), purified, tag cleaved. In words: SPR (Biacore T200), WT receptor amine-coupled, cytokine injected. As to the method: as §1, §4, §3
Assay [8] deals with T5, design 303 G-CSFR(Ig-CRH)E, tag cleaved (human, UniProt Q99062 26-331).
T5 chain: T2 chain with E94K, E142R, R168D, E172L, E175Q
The experiment in a line: SPR, G-CSFRE amine-coupled, G-CSFE injected; steady state derived affinity constant. The procedure:
as §2, §3
(§5) Kinetic-derived affinity constants (KD) where obtained by fitting the association and dissociation phases of the curves. The KD of WT G-CSF for WT G-CSFR(Ig-CRH) ranged between 1.8-2.5E-9. For the cases in which the kinetic parameters could not be fit an attempt was made to derive a steady state affinity constant. In those cases, the KD fold change was calculated from the steady state derived KD for the WT G-CSF:WT G-CSFR(Ig-CRH) pair and is indicated in Table 7.

In assay [9] the target is T6, design 307 G-CSFR(Ig-CRH)E, tag cleaved (human, UniProt Q99062 26-331).
T6 chain: T2 chain with R42E, E142R, E172L, E175Q, D198K, D201K, R289E
The assay is described as above. As to the method: as §2, §3, §5

Assay [10] has as its target T7, design 304 G-CSFR(Ig-CRH)E, tag cleaved (human, UniProt Q99062 26-331).
T7 chain: T2 chain with R42E, E94K, E142R, R168D, E172L, E175Q
In words: SPR, G-CSFRE amine-coupled, G-CSFE injected, single-cycle kinetics. The procedure:
as §1, §2, §3

Assay [11] deals with T2, design 35 G-CSFR(Ig-CRH)E, tag cleaved. The assay is described as above. As to the method: as §1, §2, §3

Numbering of substitutions follows the chain as printed.

B1: WT G-CSF, purified from insect cells, tag cleaved (ligand)
chain: TPLGPASSLPQSFLLKCLEQVRKIQGDGAALQEKLCATYKLCHPEELVLLGHSLGIPWAPLSSCPSQALQLAGCLSQLHSGLFLYQGLLQALEGISPELGPTLDTLQLDVADFATTIWQQMEELGMAPALQPTQGAMPAFASAFQRRAGGVLVASHLQSFLEVSYRVLRHLAQAAAENLYFQ
notes: protein of the SPR; also called G-CSFWT; wild type G-CSF
With B1, the “KD fold change (against WT:WT)” value in assay [1] is 774 fold; in assay [2] it was 19 fold; in assay [3], 4260 fold.

B2: design 34 G-CSFE, tag cleaved (ligand)
chain: B1 chain with L108K, D112R, E122R, E123R
notes: also called design 34 G-CSFE mutant
B2: the “KD fold change (against WT:WT)” value in assay [4] came to 5 fold; in [5] it was 33 fold.

B3: design 30 G-CSFE, tag cleaved (ligand)
chain: B1 chain with L108K, D112R
notes: also called design 30 G-CSFE mutant
Consider B3, for which the “KD fold change (against WT:WT)” value stood at 11 fold in [6] and 20 fold in [5].

B4: design 303 G-CSFE, tag cleaved (ligand)
chain: B1 chain with L108K, D112R, R147E
notes: also called design 303 G-CSFE mutant
B4: the binding result in assay [7] was “no binding”. For the same molecule, in [8], the “KD fold change (against WT:WT)” value amounted to 2.2 fold.

B5: design 307 G-CSFE, tag cleaved (ligand)
chain: B1 chain with S12E, K16D, E19K, E46R
B5: the binding result in assay [7] is recorded as “no binding”. Moreover, the “KD fold change (against WT:WT)” value in assay [9] was determined as 0.6 fold.

B6: design 304 G-CSFE, tag cleaved (ligand)
chain: B1 chain with E46R, L108K, D112R, R147E
For the molecule B6, the binding result in assay [7] is “no binding”. Further, the “KD fold change (against WT:WT)” value in [10] came to 6.5 fold.

B7: design 35 G-CSFE, tag cleaved (ligand)
chain: B1 chain with T115K, E122R, E123R
notes: also called design 35 G-CSFE mutant
On to B7, for which the “KD fold change (against WT:WT)” value in assay [11] amounted to 3.3 fold; in assay [5] it was 5 fold.
